What all share (assay): FP
The target in assay [1] is fluorescently labeled histone H3 tail peptide, monomethylated at K27 (UniProt P68431, monomethyl-lysine at K27; fluorescent label (position not given)).
The target in assay [2] is fluorescently labeled histone H3 tail peptide, dimethylated at K9 (UniProt P68431, dimethyl-lysine at K9; fluorescent label (position not given)).
In assay [3] the target is fluorescently labeled histone H4 tail peptide, dimethylated at K20 (UniProt P62805, dimethyl-lysine at K20; fluorescent label (position not given)).
The target in assay [4] is fluorescently labeled histone H3 tail peptide, dimethylated at K4 (UniProt P68431, dimethyl-lysine at K4; fluorescent label (position not given)).
Assay [5] has as its target fluorescently labeled histone H3 tail peptide, monomethylated at K9 (UniProt P68431, monomethyl-lysine at K9; fluorescent label (position not given)).
Assay [6] addresses fluorescently labeled histone H3 tail peptide, monomethylated at K4 (UniProt P68431, monomethyl-lysine at K4; fluorescent label (position not given)).
The target in assay [7] is fluorescently labeled histone H4 tail peptide, trimethylated at K20 (UniProt P62805, trimethyl-lysine at K20; fluorescent label (position not given)).
Assay [8] has as its target fluorescently labeled histone H4 tail peptide, K20 unmodified (UniProt P62805, fluorescent label (position not given)).
Assay [9] concerns the target fluorescently labeled histone H4 tail peptide, monomethylated at K20 (UniProt P62805, monomethyl-lysine at K20; fluorescent label (position not given)).
Assay [10] deals with fluorescently labeled histone H3 tail peptide, dimethylated at K27 (UniProt P68431, dimethyl-lysine at K27; fluorescent label (position not given)).

B1: human MBTD1 (Malignant Brain Tumor domain-containing protein 1) fragment composed of all four MBT repeats (residues 130-566) (domain or fragment)
chain: AKTKAAVSMEGFSWGNYINSNSFIAAPVTCFKHAPMGTCWGDISENVRVEVPNTDCSLPTKVFWIAGIVKLAGYNALLRYEGFENDSGLDFWCNICGSDIHPVGWCAASGKPLVPPRTIQHKYTNWKAFLVKRLTGAKTLPPDFSQKVSESMQYPFKPCMRVEVVDKRHLCRTRVAVVESVIGGRLRLVYEESEDRTDDFWCHMHSPLIHHIGWSRSIGHRFKRSDITKKQDGHFDTPPHLFAKVKEVDQSGEWFKEGMKLEAIDPLNLSTICVATIRKVLADGFLMIGIDGSEAADGSDWFCYHATSPSIFPVGFCEINMIELTPPRGYTKLPFKWFDYLRETGSIAAPVKLFNKDVPNHGFRVGMKLEAVDLMEPRLICVATVTRIIHRLLRIHFDGWEEEYDQWVDCESPDLYPVGWCQLTGYQLQPPASQSSR
As a reminder, the Kd is the equilibrium constant for the complex coming apart. B1: the dissociation constant Kd in assay [1] stood at 244 µM; in assay [2], 550 µM; in [3] it was 13 µM; in assay [4] it was 145 µM; in assay [5], 152 µM; in [6], 126 µM. Besides, the Kd is 680 µM in assay [7], 480 µM in assay [8], 7 µM in assay [9] and 185 µM in [10].
